Reference: the nanobody polyreactivity screen of Harvey et al. (2022)

Assay: yeast display, Sf9 membrane polyspecificity reagent, FACS + sequencing; frameworks hold sequencing errors
Summary of the method: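 After 36–48 hours of galactose induction, yeast (Saccharomyces cerevisiae BJ5465) displaying a synthetic nanobody library were stained at 4 °C for 1 hour with 10% biotinylated, detergent-solubilized Sf9 membrane reagent. Streptavidin microbeads enriched the stained cells before FACS sorting into low and high (top ~1%) gates on anti-HA and streptavidin fluorescence. Each clone's polyreactivity label reflects its gate of origin.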

QVQLVESGGGLVQAGGSLRLSCAASGFIFRYNAMGLYRQAPGKERELVARINSGVSTNYADSVKGRFTISRDNAKNTVYLQMNSLKPEDTAVYYCNARVRRGYSRFDYWGQGTQVTVSS
polyreactivity (PSR sort gate): high polyreactivity

QVQLVESGGGLVQAGGSLRLSCAASGSIFGYNTMGWYREAPGKERELVAAISYRGGSTYADSVKGRFTISRDNAKNTVYLQLNSLKPEDTAVYYSAATSYTATWRYYYWGQGTQVTVSS
polyreactivity (PSR sort gate): high polyreactivity

QVQLVESGGGLVQAGGSLRLSCAASGITFVFYTMGWYRQAPGKERELVAAIARSGASTYYADSVKGRFTLSRDNAKNTVYLQMNSLKPEDTALYYGAADRGYRFRMDYWGQGTQVTVSS
polyreactivity (PSR sort gate): high polyreactivity

QVQLVESGGGLVQAGGSLRLSCAASGIIFAYNAMGWYRQAPGKERELVAAISSGGRTNYADSVKGRFTISRDNAKNTVYLQMNSLKPEDTAVYYCAARPRYYWLGLKIYGYDYWGHGTQVTVSS
polyreactivity (PSR sort gate): high polyreactivity

QVQLVESGGCLVQAGGSLRLSCAASGRTFRWYAMGWYRQAPGKESELVAAINPGGSTNYADSVKGRFSISRDNAKNTVYLQMNSLKPEDTAVYYCNAAGYDALTHNYYWGQGTQVTVSS
polyreactivity (PSR sort gate): low polyreactivity

QVQLVESGGGLVQAGGSLRLSCAASGRTFYFNAMGWYRQAPGKERELVAAITFSGGSTNYADSVKGRFTISRDNAKNTVYLQMNSLKPEDTAVYYCAAPKYLGTDEYDYWGQGTQVTVSS
polyreactivity (PSR sort gate): low polyreactivity

QFQLVESGGGLVQAGGSLRLSCPPSGSIFPGYAMGWSRQSPGKERELVATITWSGGSTYYADSVKGRFTISRDNAKNTVYLQLTSLKPEDTAVYYCNADTNWYYQLNYYGLYDYWGQGTQVTVSS
polyreactivity (PSR sort gate): low polyreactivity

QVQLVESGGGLVQAGGSLRLSCAASGRTFRNNAMGWYRQAPGKERELVAAITSGGSTNYADSVKGRFTISRDNAKNTVYLQMNSLKPEDTAVYYCAKDFWYVTGGWSSGMDYWGQGTQVTVSS
polyreactivity (PSR sort gate): low polyreactivity

QVQLVESGGGLVEAGGSLRLSCAASGYIFGSYAMGWYRHAPGKERELVASISKSGGSTYYADSVKGRFTISRDNAKNTVYLQMNSLKPEDTAVYYCAAAGIGGGGWGQGTQVTVSS
polyreactivity (PSR sort gate): low polyreactivity

QVQLVESGGGLVQPGGSLRLSCAASGSTLTLYDMGWYRQAPGKEWEFVAAIRSHGVSTYYADSEKGRFTISRDNAKNTVYLQMNSLQPEDTAVYYCSSVYIPGGRYTYFPYKRYDYWGQGTKVTVSS
polyreactivity (PSR sort gate): high polyreactivity

QVQLVESGGGLVQAGGSLRLSCAASGLIFQTYAMGWSRQAPGKERELVATISGSTGGTYYADSVKGRFTISRDNAKNTVYLQMNSLKPEDTAVYYCNASVFQSEYDYWGQGTQVTVSS
polyreactivity (PSR sort gate): low polyreactivity

QLLLVESGGGLVQAGGSLRLSCATSGIILRYYAMGWYRQAPGKERELVAAISGSGTRTYYADSVKGRFTISRDNAKNTVYLQMNSLKPEDTAVYYCAAAHPATRYDYWGQGTQVTVSS
polyreactivity (PSR sort gate): high polyreactivity

QVQLVESGGGLVHAGGSLRLSCAASGRTFYIYAMGWYRQAPGKERELVAAISKSGGRTYYADSVKGRITISRDNAKNTVYLQMNSLKPEDTAVYYCNKLVGDDTALYDYWGQGTQVTVSS
polyreactivity (PSR sort gate): high polyreactivity

QVQLVESGGGLVQAGGSLRLSCAASGRIFVRYAMGWYRQAPGKERELVAAISSGGRTHYADSVKGRFTISRDNAKNTVYLQRNSLKPEDTAVYDCATRLRSTTRYYYWGQGTQVTVSS
polyreactivity (PSR sort gate): high polyreactivity

QVQLVESWGVLVQAGGSLRLSCAASGSIFTYYTMGWYRPEPGKERDFVARISSGGSTNYADSVKGRFTISRDNAMNTVYLQMNSLKPEDTAVYYCAAVSSYSPYRLTYYYWGQGTQVTVSS
polyreactivity (PSR sort gate): high polyreactivity

QVQLVESGGGLVQAGGSLRLSCAASGSIFFNYAMGWYRQAPGKERELVAAITRSGGSTYYADSVKGRFTISRDNAKNTVYLQMNSLKPEDTAVYYCAARYPFGSLGRYGYWGQGTQVTVSS
polyreactivity (PSR sort gate): high polyreactivity

QVQLVESGGGLVQAGGSLRLSCAASGFTFFSNAMGWYRQAPGKERELVAAITSSGGSTYADSVKGRFTISRDNAKNTVYLQMNSLKPEDTAVYYCAADAQAPPGGFKEYDYWGQGTQVTVSS
polyreactivity (PSR sort gate): low polyreactivity

QVQLVESGGGLVQAGGSLRLSCAASGITFDGYAMGWYRQAPGKEREFVAAISRSGTSTYYADSVKGRFTISRDNAKNTVYLQMNSLKPEDSAVYYCNKKWPRLYYYWGQGTQVTVSS
polyreactivity (PSR sort gate): high polyreactivity

QVQLVESGGGLVQAGGSLRLSCAASGSTFAINVMGWYRQAPGKERELVAAISSVGGTNYADSVKGRFTISRDNAKNTVYLQMNSLKPEDTAVYYCATVYSSWTVRYDYWGQGTQVTVSS
polyreactivity (PSR sort gate): low polyreactivity

QVQLVESGGGLVQAGGSLRLSCAASGSIFTTYAMGWYRQAPGKERELVAVISRRGGSTYYADSVKGRFTISRDNAKNTVYLQMNSLTPEDTADYYCNAYTYTYHRDHTDRYNYWGQGTQVTVSS
polyreactivity (PSR sort gate): high polyreactivity

QVQLVESGGGLVQAGGSLRLSCAASGSIFLKNVMGWYRQAPGKERELVAAITARGGATYYADSVKGRFTISRDNAKKTVYLQLNSQKPEDTAVYYCAARARVVPSLGNPRMDYWGQGTQVTVSS
polyreactivity (PSR sort gate): high polyreactivity

QVQLVESGGGLVQAGGSLRLSCAASGRTFPGNAMGGDKQAPGKERELVASINGRTTRTYYADSVKGRFTISRDNAKNTVYLQMTSLKPEDTAVYYCAADPPGYVYGKRYYWGQGTQVTVSS
polyreactivity (PSR sort gate): high polyreactivity

QVQLVESGGGLVQAGGSLRLSCAASGSIFLYNTKGWYRQAPGKERELVAAISFSGVTTYYADSVKGRFTISRDNAKNTVYLQMNSLKPEDTAVYYCNKYLWKFTNSPLGDYYWGQGTQVTVSS
polyreactivity (PSR sort gate): high polyreactivity

QVQLVESGGGLVQAGGSLRLSCAASGITFVQYAMGWYRQAPGKERELVAAITSDGRTYYADSVKGRFTISRDNAKNTVYLQMNSLKPEDTAVYYCAADVWRYTAYGGAYRRDYWGQGTQVTVSS
polyreactivity (PSR sort gate): low polyreactivity

QVQLVESGGGLVQAGGSLRLSCAASGRTFRWYTMGWYRQAPGKEREFVAAITWSGSSTDYADSVKGRFTISRDNAKNTVYLQMNSLKPEDTAVYYCAAENRRSRDDYWGQGTQVTVSS
polyreactivity (PSR sort gate): high polyreactivity

QVQLVASGGGLVQAGGSLRLSFAASGRNFAYNTMGWYRQAPGKERELVAAITWSGGGKYYADSVKGRFTISRDNAKNTVYLHMNSLKPEDTAVYYCAVVYASPRARYRYYYWGQGTQVTVSS
polyreactivity (PSR sort gate): low polyreactivity

QVQLVESGGGLVQAGGSLRLSCAASGRTFRNYAMGWYRQAPGKERELVAAISASGGSTYYADSVKGRFTISRDNAKNTVYLQMNSLKPEDTAVYYCAARYQGFGYRKYDYWGQGTQVTVSS
polyreactivity (PSR sort gate): high polyreactivity

QVQLVESGGGLVQAGGSLRLSCAASGGTFQQNAMGWSRQAPGKERELVAAISWSDGSTYYADSVKGRFTISRDYATNTVYLQMNSLTPEDTAVYYCAADFTYYDSPYRDYNYESWGQGTQVTVSS
polyreactivity (PSR sort gate): low polyreactivity

QVQLVESGGGLVQAGGSLRLSCAASGRIIYTYAMGWYRQAPGKERELVAAISWSGGSTYYADSVKGRFTISRDNAKNTVYLQMKSLKPEDTAVYFCNAAYYGYENLSKRGYWGQGTQVTVSS
polyreactivity (PSR sort gate): high polyreactivity

QVQLVESGGGLVQAGGSLRLSCAASGFNFGGNAMGWYRQAPGKERELVAAISGSGGSTYYADSVKGRFTISRDNAKNTVYLQMNSLKPEDTAVYYCAVKFPPRKSYGYYYWGQGTQVTVSS
polyreactivity (PSR sort gate): high polyreactivity

QVQLVESGGGLVQAGGSLRLSCAASGSIFSVYAMGWYRQAPGKERELVAAITSGTSTYADSVKGRFTISRDNAKNTVYLQMNSLKPEDTAVYYCAAESGSPGYYYWGQGTQVTVSS
polyreactivity (PSR sort gate): low polyreactivity

QVQLVESGGGLVQAGGSLRLSCAASGRIFTHYAMGWYRQAPGKERELVAAISRTGGTTNYADSVKGRFTISRDNAKNTVYLQMNSLKPEDTAVYYCAAVGKGAKDYFKYYSLGQGTQVTVSS
polyreactivity (PSR sort gate): high polyreactivity

QVQLVESGGGLVQAGGSLRLSCAASGFTFILYTMGWYRQAPGKERELVAAITWRGGNTYYADSVKGRFTISRDNAKNTVYLQMNSLKPEDSAVYYCAAETYYASWEMDYWGQGTQVTVSS
polyreactivity (PSR sort gate): high polyreactivity

QVQLVESGGGLVQAGGSLRLSCAASGSTYRYYAMGWYRQAPGKERELVAGISWSGTSTYYADSVKGRFTISRDNANNTVYLQMNSLKPEDTAVYYSNVVWWSRYGTTYKYDYWGQGTQVTVSS
polyreactivity (PSR sort gate): high polyreactivity

QVQLVESGGGLVQAGGSLRLSCAPSGSTFRTYTMGWYIQAPGKERELVAAITGRGGSTYYADSVKGRFTISRDTAKNTVYFQMNSLKREDTAVYYCAALYGGQTKHDFWGQGTQVTVSS
polyreactivity (PSR sort gate): low polyreactivity

QVQLVESGGGLVHAGGSLRLSCDASGITFWAYAMGWYRQAPGKEREFVAAITVSTGSTFYADSVKGRFTISRDNAKNTVYLQMNSLKREDTALYYCAAPQDGTWWLPAGGYWGQGTQVTVSS
polyreactivity (PSR sort gate): low polyreactivity

QVQLVESGGGLVQAGGSLRLSCAASGSTFGQYAMGWYRQAPGKERELVAAISRNGGRTYYADSVKGRFTISRDNAKNTVYLLMNSLKPEDTAVYYCAAGGFLYVYYRGMYYWGQGTQVTVSS
polyreactivity (PSR sort gate): high polyreactivity

QDQLVDSGGCLVQAGGSLSLSCAASGNTFNIYAMGWYRQAPGKEREFVAAITVSDTSTYYADSVKGRFTISRDNAKNTVYLKMHSLKPEDTSVYYCNADWWCTYDYYYWGQGTQGTVSS
polyreactivity (PSR sort gate): low polyreactivity

QVQLVESGGGLVQAGGSLRISCAASGRTFHYYDMGWYRQAPGKERELVAAISSTAGSTYYADSVKGRFTISRDNAQNTVHLQMNSLKPEDTAVYYCAARQFGYYHVRNEYWGQGTQVTVSS
polyreactivity (PSR sort gate): high polyreactivity

QVQLVESGGGLVQAGGSLRLSCAASGIIFPYYAMGWYRQAPGKERELVAGISSSGGITYADSVKGRFTISRDNAKNTVYLQMNSLKPEDTAVYYCNAEYQWLEYDFWGQGTQVTVSS
polyreactivity (PSR sort gate): low polyreactivity

QVQLVESGGGLVQAGGSLRLSCAASGSIFRANTMGWYRQAPGKERELVAVISSGGRTYYADSVKGRFTISRDNAKNTVYLQMNSLKPEDTAVYYCAAKRGYGYGYWGQGTQVTVSS
polyreactivity (PSR sort gate): high polyreactivity

QVQLVESGGGLVQAGGSLRLSSAASGRIFYLYAMGWYRQAPVKERELVAGITSGGRTNYADSVKGRFTISRDNAKNTFFLQMNSLKPEDTAVYYCAAYYWGLYSGYYWRQGTQVTVSS
polyreactivity (PSR sort gate): high polyreactivity

QVQLVETGGGLVQAGGSLRLSCAASGSTFYKYGMGWYRPAPGKERELVAAISGSGDSTYYADSVKGRFTISRDNAKNTVYLQMNSLKPEDTAVSYCNAGPWWFLHEYDYWGQGTQVTVSS
polyreactivity (PSR sort gate): low polyreactivity
